Data from article PMC6863806.

Target: ROP18 in total lysate antigen of T. gondii RH (RH Ag) (Toxoplasma gondii RH strain) (UniProt Q2PAY2)
Assay: direct ELAA (plate-based aptamer binding)
Details: 50 ug/mL RH Ag coated; aptamer 50-500 nM; Direct ELAA: antigen coated in carbonate pH 9.6 overnight 4 C; 1% BSA block; biotin-aptamer in PBS, 0.5% glucose, 0.1% albumin, 1 M MgCl2 (so in the source), 1 h …

Sequence of UniProt Q2PAY2 (Q2PAY2 whole entry): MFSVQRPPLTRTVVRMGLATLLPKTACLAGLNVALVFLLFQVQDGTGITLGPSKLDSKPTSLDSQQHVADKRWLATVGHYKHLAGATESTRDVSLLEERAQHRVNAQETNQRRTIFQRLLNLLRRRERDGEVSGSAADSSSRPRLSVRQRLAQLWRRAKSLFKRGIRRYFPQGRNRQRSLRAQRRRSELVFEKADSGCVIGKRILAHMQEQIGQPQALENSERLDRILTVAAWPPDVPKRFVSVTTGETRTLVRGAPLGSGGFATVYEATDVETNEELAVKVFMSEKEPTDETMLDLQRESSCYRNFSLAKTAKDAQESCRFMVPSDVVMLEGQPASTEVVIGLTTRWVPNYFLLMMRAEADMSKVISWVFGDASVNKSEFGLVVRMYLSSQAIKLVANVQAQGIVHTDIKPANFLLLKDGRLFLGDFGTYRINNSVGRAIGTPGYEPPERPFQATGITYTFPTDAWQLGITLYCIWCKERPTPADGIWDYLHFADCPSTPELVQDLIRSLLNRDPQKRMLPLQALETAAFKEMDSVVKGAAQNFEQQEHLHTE

Sequence “CGCACCGATCCGGTGTTAATCTCGACGTCCCTTAAGTTTG [AP002]” has a Kd of 97.7 nM.
“TCCTGGCAGCGCTTTTGCTTGTTTGCTCTCGTACCTGTCC [AP001]” gave a Kd of 62.7 nM.
